Experiments:
[1] = molecular target: T1, recombinant human neonatal Fc receptor (FcRn), biotinylated (human, UniProt P55899 24-297, site-directed biotinylation at AviTag); assay: SPR (Biacore), 37 °C, pH 6.0, biotin-captured human FcRn as ligand, steady-state affinity fit
T1 construct: also called human FcRn
Protocol: (§1) Affinity parameters were evaluated for interaction with human FcRn, cynomolgus FcRn or murine FcRn using a Steady State Binding model (D-F).

[2] = molecular target: T2, recombinant human FcγRIIA (CD32A), biotinylated (human, UniProt P12318 34-218, limits assumed, site-directed biotinylation at AviTag); assay: SPR (Biacore), 37 °C, biotin-captured human CD32A as ligand, steady-state plot; left-hand column, no heading on the sheet
T2 construct: also called human CD32A
T2 sequence (looked up): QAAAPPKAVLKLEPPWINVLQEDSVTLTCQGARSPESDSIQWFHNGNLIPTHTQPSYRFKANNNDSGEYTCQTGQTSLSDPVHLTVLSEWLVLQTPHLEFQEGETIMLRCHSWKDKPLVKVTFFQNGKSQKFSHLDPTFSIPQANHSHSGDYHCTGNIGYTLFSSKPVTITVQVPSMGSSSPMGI
Protocol: FIG. 21: SPR interaction analysis of antibody binding to CD32. […] Affinity parameters were evaluated for interaction with receptors using a Steady State Binding model.

[3] = molecular target: T3, human CD16A (158F) on transfected CHO cells (cAg_34) (human, UniProt P08637 17-254); assay: flow cytometry on huCD16A-transfected CHO cells (cAg_34), one-site fit of MFI, experiment 2
T3 construct: Exact cell-anchored construct not described; also called huCD16A
Protocol: (§2) After washing in FACS buffer, cells were incubated in 50 μL FACS buffer without antibodies or with titrated antibodies starting at a concentration of 100 μg/mL followed by ten 5-fold serial dilutions for 30 min on ice in the dark. After washing twice, cells were incubated with APC-conjugated goat anti-human IgG (H+L)-APC (Dianova, cat. 109-136-088) for 30 min on ice in the dark. […] After washing, binding was measured by flow cytometry and mean fluorescence intensities (MFI) of cell samples were calculated and corrected for background staining using control cells stained with secondary antibodies only.
(§3) Equilibrium dissociation constants (KD) of antibody binding were calculated by plotting MFI values and fitting a non-linear regression model for one-site binding to hyperbolic dose-response curves using GraphPad Prism.

[4] = molecular target: T3, human CD16A (158F) on transfected CHO …; assay: flow cytometry on huCD16A-transfected CHO cells (cAg_34), one-site fit of MFI, experiment 3
Protocol: as §2, §3

[5] = molecular target: T3, human CD16A (158F) on transfected CHO …; assay: flow cytometry on huCD16A-transfected CHO cells (cAg_34), one-site fit of MFI, mean of 3 experiments
Protocol: as §2, §3

[6] = molecular target: T4, recombinant murine neonatal Fc receptor (FcRn), biotinylated (murine, UniProt Q61559 22-297, limits assumed, site-directed biotinylation at AviTag); assay: SPR (Biacore), 37 °C, pH 6.0, biotin-captured murine FcRn as ligand, steady-state affinity fit
T4 construct: also called murine FcRn
T4 sequence (looked up): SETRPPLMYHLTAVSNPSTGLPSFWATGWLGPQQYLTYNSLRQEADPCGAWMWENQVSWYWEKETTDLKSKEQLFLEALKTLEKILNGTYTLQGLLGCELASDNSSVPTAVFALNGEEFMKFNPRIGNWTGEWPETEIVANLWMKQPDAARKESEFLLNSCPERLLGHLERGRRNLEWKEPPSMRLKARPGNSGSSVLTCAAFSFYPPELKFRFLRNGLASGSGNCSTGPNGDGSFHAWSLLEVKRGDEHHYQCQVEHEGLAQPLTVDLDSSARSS
Protocol: as §1

[7] = molecular target: T5, recombinant murine FcγRIV (CD16-2), biotinylated (murine, UniProt A0A0B4J1G0 21-203, biotinylated (site not stated)); assay: SPR (Biacore), 37 °C, biotin-captured murine CD16-2 as ligand, steady-state plot; left-hand column, no heading on the sheet
T5 construct: also called murine CD16-2; mouse CD16-2; not shown: biotinylation or purification tag (AviTag according to our card)
T5 sequence: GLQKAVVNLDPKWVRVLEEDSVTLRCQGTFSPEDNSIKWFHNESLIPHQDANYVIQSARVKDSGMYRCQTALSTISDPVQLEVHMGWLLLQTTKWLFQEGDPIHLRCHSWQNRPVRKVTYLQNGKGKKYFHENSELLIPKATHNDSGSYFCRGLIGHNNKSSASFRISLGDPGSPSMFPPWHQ
Protocol: FIG. 20: SPR interaction analysis of antibody binding to CD64 and murine CD16-2. […] Affinity parameters were evaluated for interaction with receptors using a Steady State Binding model.

[8] = molecular target: T6, recombinant murine FcγRIIB (CD32), biotinylated (murine, UniProt P08101 30-207, limits assumed, site-directed biotinylation at AviTag); assay: SPR (Biacore T200), 37 C, biotin-captured receptor
T6 construct: also called murine CD32B; mouse CD32B
T6 sequence (looked up): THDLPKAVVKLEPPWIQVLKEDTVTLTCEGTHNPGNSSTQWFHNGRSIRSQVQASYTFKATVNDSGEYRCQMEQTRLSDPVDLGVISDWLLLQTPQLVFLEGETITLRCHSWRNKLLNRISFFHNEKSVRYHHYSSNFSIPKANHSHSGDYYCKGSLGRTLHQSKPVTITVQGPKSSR
Protocol: Sensor chips were pre-equilibrated in HBS-P+ running buffer for 12 hours prior to the first measurement and the detectors were normalized using BIAnormalization solution (70% w/w glycerol) according to the manufacturer's instructions.
Interaction analysis of FcRn binding was performed at pH 6.0 in PBS/0.05% Tween 20; analytes and ligands were diluted in the same buffer. […] Ligand-free surfaces in FC1 and FC3 were used as references for response signals (FC2-1, FC4-3). Interaction analysis of CD64, CD32, and murine CD16-2 binding was performed in HBS-P+ buffer and analytes and ligands were diluted in the same buffer. Biotinylated Fcγ-Receptors were captured to a density of approximately 15 to 30 RU (FC2, FC3, and FC4) before increasing concentrations (500 nM to 4000 nM) of antibody were injected, using the single-cycle kinetic mode (FC1-FC4) at a flow rate of 40 μL/min for 100 seconds followed by dissociation for 90 seconds. A zero-concentration cycle and ligand-free surface in FC1 was used for referencing of response signals (FC2-1, FC3-1, and FC4-1). Sensor chip surfaces were prepared and regenerated before and after each measurement using Biotin Capture reagent (Biotin CAPture Kit, GE Healthcare) and 6 M guanidine-HCl, 0.25 M NaOH, respectively.
Binding affinities were determined by fitting data using the steady state affinity model of the Biacore T200 Evaluation software (v3.1).

T3 sequence (P08637 17-254 limits assumed): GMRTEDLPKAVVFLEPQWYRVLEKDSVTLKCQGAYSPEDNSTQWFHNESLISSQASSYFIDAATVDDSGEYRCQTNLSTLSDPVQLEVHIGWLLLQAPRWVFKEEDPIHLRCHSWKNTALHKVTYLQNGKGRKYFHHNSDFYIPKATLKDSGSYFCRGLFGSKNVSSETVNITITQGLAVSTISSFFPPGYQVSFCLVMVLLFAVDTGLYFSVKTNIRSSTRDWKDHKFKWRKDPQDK
T1 sequence (P55899 24-297 limits assumed, form in doubt): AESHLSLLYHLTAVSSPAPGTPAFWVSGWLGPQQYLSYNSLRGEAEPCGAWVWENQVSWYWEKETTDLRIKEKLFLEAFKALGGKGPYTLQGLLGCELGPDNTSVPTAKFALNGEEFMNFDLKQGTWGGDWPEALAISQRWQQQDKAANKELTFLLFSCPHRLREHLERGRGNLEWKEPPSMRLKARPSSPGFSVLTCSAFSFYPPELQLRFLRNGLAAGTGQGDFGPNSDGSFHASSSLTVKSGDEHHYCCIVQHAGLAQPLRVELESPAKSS

Kd [1]: 364 nM
binding result [2]: no binding
Kd [3]: 7.8 nM
Kd [4]: 23.5 nM
Kd [5]: 16.3 nM
Kd [6]: 72 nM
binding result [7]: no binding
binding result [8]: no binding (tested: 500 nM to 4000 nM)
B1: scFv-IgAb_268 (CD123-1xCD16a1) (bispecific antibody)
heavy: QVQLQQSGAEVKKPGASVKVSCKASGYTFTDYYMKWVKQSHGKSLEWMGDIIPSNGATFYNQKFKGKATLTVDRSTSTAYMELSSLRSEDTAVYYCARSHLLRASWFAYWGQGTLVTVSSASTKGPSVFPLAPSSKSTSGGTAALGCLVKDYFPEPVTVSWNSGALTSGVHTFPAVLQSSGLYSLSSVVTVPSSSLGTQTYICNVNHKPSNTKVDKKVEPKSCDKTHTCPPCPAPEFEGGPSVFLFPPKPKDTLMISRTPEVTCVVVAVSHEDPEVKFNWYVDGVEVHNAKTKPREEQYNSTYRVVSVLTVLHQDWLNGKEYKCKVSNKALPAPIEKTISKAKGQPREPQVYTLPPSREEMTKNQVSLTCLVKGFYPSDIAVEWESNGQPENNYKTTPPVLDSDGSFFLYSKLTVDKSRWQQGNVFSCSVMHEALHNHYTQKSLSLSPGGGGGSGGGGSGGGGSGGGGSGGGGSGGGGSSYELTQPLSVSVALGQTARITCGGNNIGSKSVHWYQQKPGQAPVLVIYQDKKRPSGIPERFSGSNSGNTATLTISRAQAGDEADYYCQVWDDYIVLFGCGTKLTVLGGSGGSGGSGGSGGSGGSGGSQVQLVQSGAEVKKPGASVKVSCKASGYTFTNYYMQWVRQAPGQCLEWMGIINPSGGVTSYAQKFQGRVTMTRDTSTSTVYMELSSLRSEDTAVYYCARGSAYYYDFADYWGQGTLVTVSS
light: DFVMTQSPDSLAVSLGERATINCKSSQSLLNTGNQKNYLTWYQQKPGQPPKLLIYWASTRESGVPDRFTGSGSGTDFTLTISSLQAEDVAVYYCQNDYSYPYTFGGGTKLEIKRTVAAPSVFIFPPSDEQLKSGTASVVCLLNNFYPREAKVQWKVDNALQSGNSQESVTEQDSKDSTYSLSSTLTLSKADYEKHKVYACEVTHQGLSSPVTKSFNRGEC
notes: also called AFM28; CD123xCD16A scFv-IgAb_268

From patent US20260070986A1 (AFFIMED, published 2026)
